Test results as given in patent publication US20100184697A1 (U S OF AMERICA AS REPRESENTED BY THE SECRETAR, published 2010).
Square brackets hold non-standard residues; d marks the D form. Ends that are not written are not given here. Nle = CCCC[C@H](N)C(=O)O; Dab = NCC[C@H](N)C(=O)O

Molecular target: STAT3 (human, UniProt P40763 2-770, limits assumed)
Experiment: cell-based or functional assay

Chain of STAT3 (P40763 2-770 limits assumed): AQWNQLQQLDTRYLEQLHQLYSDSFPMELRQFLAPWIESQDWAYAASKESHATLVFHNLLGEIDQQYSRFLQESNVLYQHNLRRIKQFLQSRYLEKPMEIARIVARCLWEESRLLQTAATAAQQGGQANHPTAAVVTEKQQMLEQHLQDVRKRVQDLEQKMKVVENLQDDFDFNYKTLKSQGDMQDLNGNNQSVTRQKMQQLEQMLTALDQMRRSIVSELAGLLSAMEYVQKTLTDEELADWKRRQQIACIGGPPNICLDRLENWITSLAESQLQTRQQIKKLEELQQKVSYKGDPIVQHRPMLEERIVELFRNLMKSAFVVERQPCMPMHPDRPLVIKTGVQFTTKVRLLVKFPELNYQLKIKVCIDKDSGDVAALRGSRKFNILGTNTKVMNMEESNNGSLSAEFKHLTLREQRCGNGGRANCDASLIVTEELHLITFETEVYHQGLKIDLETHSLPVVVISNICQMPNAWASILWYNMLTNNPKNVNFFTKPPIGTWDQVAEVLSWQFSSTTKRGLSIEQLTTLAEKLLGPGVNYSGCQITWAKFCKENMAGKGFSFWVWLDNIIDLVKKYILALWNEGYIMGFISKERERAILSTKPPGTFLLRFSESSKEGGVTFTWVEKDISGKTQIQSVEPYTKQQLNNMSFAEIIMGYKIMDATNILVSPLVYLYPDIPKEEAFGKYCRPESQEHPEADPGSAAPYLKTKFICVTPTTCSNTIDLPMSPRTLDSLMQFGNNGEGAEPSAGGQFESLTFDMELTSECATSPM

Binder | Activity, % of control (luciferase reporter, GAS or STAT3 element, MCF-7 cells)
DTRYLEQLH[Dab]LYRQIKIWFPNRR[Nle]KWKK-NH2 (N-terminus assumed; SMILES CCCC[C@H](NC(=O)[C@H](CCCNC(=N)N)NC(=O)[C@H](CCCNC(=N)N)NC(=O)[C@H](CC(N)=O)NC(=O)[C@@H]1CCCN1C(=O)[C@H](Cc1ccccc1)NC(=O)[C@H](Cc1c[nH]c2ccccc12)NC(=O)[C@@H](NC(=O)[C@H](CCCCN)NC(=O)[C@@H](NC(=O)[C@H](CCC(N)=O)NC(=O)[C@H](CCCNC(=N)N)NC(=O)[C@H](Cc1ccc(O)cc1)NC(=O)[C@H](CC(C)C)NC(=O)[C@H](CCN)NC(=O)[C@H](Cc1c[nH]cn1)NC(=O)[C@H](CC(C)C)NC(=O)[C@H](CCC(N)=O)NC(=O)[C@H](CCC(=O)O)NC(=O)[C@H](CC(C)C)NC(=O)[C@H](Cc1ccc(O)cc1)NC(=O)[C@H](CCCNC(=N)N)NC(=O)[C@@H](NC(=O)[C@@H](N)CC(=O)O)[C@@H](C)O)[C@@H](C)CC)[C@@H](C)CC)C(=O)N[C@@H](CCCCN)C(=O)N[C@@H](Cc1c[nH]c2ccccc12)C(=O)N[C@@H](CCCCN)C(=O)N[C@@H](CCCCN)C(N)=O) [Hel2I-Pen] | 53 % of control
DTRYLEQLHKLYSRQIKIWFPNRR[Nle]KWKK-NH2 (N-terminus assumed; SMILES CCCC[C@H](NC(=O)[C@H](CCCNC(=N)N)NC(=O)[C@H](CCCNC(=N)N)NC(=O)[C@H](CC(N)=O)NC(=O)[C@@H]1CCCN1C(=O)[C@H](Cc1ccccc1)NC(=O)[C@H](Cc1c[nH]c2ccccc12)NC(=O)[C@@H](NC(=O)[C@H](CCCCN)NC(=O)[C@@H](NC(=O)[C@H](CCC(N)=O)NC(=O)[C@H](CCCNC(=N)N)NC(=O)[C@H](CO)NC(=O)[C@H](Cc1ccc(O)cc1)NC(=O)[C@H](CC(C)C)NC(=O)[C@H](CCCCN)NC(=O)[C@H](Cc1c[nH]cn1)NC(=O)[C@H](CC(C)C)NC(=O)[C@H](CCC(N)=O)NC(=O)[C@H](CCC(=O)O)NC(=O)[C@H](CC(C)C)NC(=O)[C@H](Cc1ccc(O)cc1)NC(=O)[C@H](CCCNC(=N)N)NC(=O)[C@@H](NC(=O)[C@@H](N)CC(=O)O)[C@@H](C)O)[C@@H](C)CC)[C@@H](C)CC)C(=O)N[C@@H](CCCCN)C(=O)N[C@@H](Cc1c[nH]c2ccccc12)C(=O)N[C@@H](CCCCN)C(=O)N[C@@H](CCCCN)C(N)=O) [Hel2A-Pen] | 100 % of control
LDTRYLEQLHQLYSRQIKIWFPNRR[Nle]KWKK-NH2 (N-terminus assumed; SMILES CCCC[C@H](NC(=O)[C@H](CCCNC(=N)N)NC(=O)[C@H](CCCNC(=N)N)NC(=O)[C@H](CC(N)=O)NC(=O)[C@@H]1CCCN1C(=O)[C@H](Cc1ccccc1)NC(=O)[C@H](Cc1c[nH]c2ccccc12)NC(=O)[C@@H](NC(=O)[C@H](CCCCN)NC(=O)[C@@H](NC(=O)[C@H](CCC(N)=O)NC(=O)[C@H](CCCNC(=N)N)NC(=O)[C@H](CO)NC(=O)[C@H](Cc1ccc(O)cc1)NC(=O)[C@H](CC(C)C)NC(=O)[C@H](CCC(N)=O)NC(=O)[C@H](Cc1c[nH]cn1)NC(=O)[C@H](CC(C)C)NC(=O)[C@H](CCC(N)=O)NC(=O)[C@H](CCC(=O)O)NC(=O)[C@H](CC(C)C)NC(=O)[C@H](Cc1ccc(O)cc1)NC(=O)[C@H](CCCNC(=N)N)NC(=O)[C@@H](NC(=O)[C@H](CC(=O)O)NC(=O)[C@@H](N)CC(C)C)[C@@H](C)O)[C@@H](C)CC)[C@@H](C)CC)C(=O)N[C@@H](CCCCN)C(=O)N[C@@H](Cc1c[nH]c2ccccc12)C(=O)N[C@@H](CCCCN)C(=O)N[C@@H](CCCCN)C(N)=O) [Hel2-Pen] | 56 % of control
LDTRYLEQLHKLYSRQIKIWFPNRR[Nle]KWKK-NH2 (N-terminus assumed; SMILES CCCC[C@H](NC(=O)[C@H](CCCNC(=N)N)NC(=O)[C@H](CCCNC(=N)N)NC(=O)[C@H](CC(N)=O)NC(=O)[C@@H]1CCCN1C(=O)[C@H](Cc1ccccc1)NC(=O)[C@H](Cc1c[nH]c2ccccc12)NC(=O)[C@@H](NC(=O)[C@H](CCCCN)NC(=O)[C@@H](NC(=O)[C@H](CCC(N)=O)NC(=O)[C@H](CCCNC(=N)N)NC(=O)[C@H](CO)NC(=O)[C@H](Cc1ccc(O)cc1)NC(=O)[C@H](CC(C)C)NC(=O)[C@H](CCCCN)NC(=O)[C@H](Cc1c[nH]cn1)NC(=O)[C@H](CC(C)C)NC(=O)[C@H](CCC(N)=O)NC(=O)[C@H](CCC(=O)O)NC(=O)[C@H](CC(C)C)NC(=O)[C@H](Cc1ccc(O)cc1)NC(=O)[C@H](CCCNC(=N)N)NC(=O)[C@@H](NC(=O)[C@H](CC(=O)O)NC(=O)[C@@H](N)CC(C)C)[C@@H](C)O)[C@@H](C)CC)[C@@H](C)CC)C(=O)N[C@@H](CCCCN)C(=O)N[C@@H](Cc1c[nH]c2ccccc12)C(=O)N[C@@H](CCCCN)C(=O)N[C@@H](CCCCN)C(N)=O) [Hel2B-Pen] | 100 % of control
LDTRYLEQLHKLYRQIKIWFPNRR[Nle]KWKK-NH2 (N-terminus assumed; SMILES CCCC[C@H](NC(=O)[C@H](CCCNC(=N)N)NC(=O)[C@H](CCCNC(=N)N)NC(=O)[C@H](CC(N)=O)NC(=O)[C@@H]1CCCN1C(=O)[C@H](Cc1ccccc1)NC(=O)[C@H](Cc1c[nH]c2ccccc12)NC(=O)[C@@H](NC(=O)[C@H](CCCCN)NC(=O)[C@@H](NC(=O)[C@H](CCC(N)=O)NC(=O)[C@H](CCCNC(=N)N)NC(=O)[C@H](Cc1ccc(O)cc1)NC(=O)[C@H](CC(C)C)NC(=O)[C@H](CCCCN)NC(=O)[C@H](Cc1c[nH]cn1)NC(=O)[C@H](CC(C)C)NC(=O)[C@H](CCC(N)=O)NC(=O)[C@H](CCC(=O)O)NC(=O)[C@H](CC(C)C)NC(=O)[C@H](Cc1ccc(O)cc1)NC(=O)[C@H](CCCNC(=N)N)NC(=O)[C@@H](NC(=O)[C@H](CC(=O)O)NC(=O)[C@@H](N)CC(C)C)[C@@H](C)O)[C@@H](C)CC)[C@@H](C)CC)C(=O)N[C@@H](CCCCN)C(=O)N[C@@H](Cc1c[nH]c2ccccc12)C(=O)N[C@@H](CCCCN)C(=O)N[C@@H](CCCCN)C(N)=O) [Hel2A-2-Pen] | 71 % of control
LDTRYLEQLH[Dab]LYRQIKIWFPNRR[Nle]KWKK-NH2 (N-terminus assumed; SMILES CCCC[C@H](NC(=O)[C@H](CCCNC(=N)N)NC(=O)[C@H](CCCNC(=N)N)NC(=O)[C@H](CC(N)=O)NC(=O)[C@@H]1CCCN1C(=O)[C@H](Cc1ccccc1)NC(=O)[C@H](Cc1c[nH]c2ccccc12)NC(=O)[C@@H](NC(=O)[C@H](CCCCN)NC(=O)[C@@H](NC(=O)[C@H](CCC(N)=O)NC(=O)[C@H](CCCNC(=N)N)NC(=O)[C@H](Cc1ccc(O)cc1)NC(=O)[C@H](CC(C)C)NC(=O)[C@H](CCN)NC(=O)[C@H](Cc1c[nH]cn1)NC(=O)[C@H](CC(C)C)NC(=O)[C@H](CCC(N)=O)NC(=O)[C@H](CCC(=O)O)NC(=O)[C@H](CC(C)C)NC(=O)[C@H](Cc1ccc(O)cc1)NC(=O)[C@H](CCCNC(=N)N)NC(=O)[C@@H](NC(=O)[C@H](CC(=O)O)NC(=O)[C@@H](N)CC(C)C)[C@@H](C)O)[C@@H](C)CC)[C@@H](C)CC)C(=O)N[C@@H](CCCCN)C(=O)N[C@@H](Cc1c[nH]c2ccccc12)C(=O)N[C@@H](CCCCN)C(=O)N[C@@H](CCCCN)C(N)=O) [Hel2H-Pen] | 43 % of control
